In assay [1] the target is T1, BSA, in the presence of simeprevir (UniProt P02769 25-607).
T1 construct: also called BSA control
The experiment in a line: SPR Biacore 8K, PRSIM immobilised, BSA + 10 nM simeprevir.

For assay [2], the target named is T2, HCV NS3/4A PR (S139A):simeprevir complex (Hepatitis C virus subtype 1a). The experiment in a line: phage ELISA.
In assay [3] the target is T2, HCV NS3/4A PR (S139A):simeprevir complex. The experiment in a line: HTRF, with simeprevir.
Assay [4] has the same target. The experiment in a line: SPR Biacore 8K, PRSIM immobilised, protease flowed with 10 nM simeprevir.
Assay [5] has as its target T3, HCV NS3/4A PR K136D (S139A background), in the presence of simeprevir (Hepatitis C virus subtype 1a).
T3 chain: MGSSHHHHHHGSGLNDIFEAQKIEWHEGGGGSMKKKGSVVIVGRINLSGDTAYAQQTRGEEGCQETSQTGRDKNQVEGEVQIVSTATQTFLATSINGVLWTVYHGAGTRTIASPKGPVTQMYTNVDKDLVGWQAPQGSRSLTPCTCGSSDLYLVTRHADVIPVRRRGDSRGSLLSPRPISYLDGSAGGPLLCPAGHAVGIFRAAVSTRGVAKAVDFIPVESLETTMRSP

In assay [6] the target is T4, HCV NS3/4A PR K136N (S139A background), in the presence of simeprevir (Hepatitis C virus subtype 1a).
T4 chain: T3 chain with D183N

In assay [7] the target is T5, HCV NS3/4A PR D168E (S139A background), in the presence of simeprevir (Hepatitis C virus subtype 1a).
T5 chain: T3 chain with D183K, D215E

In assay [8] the target is T3, HCV NS3/4A PR K136D (S139A background), ….
The target of assay [9] is T4, HCV NS3/4A PR K136N (S139A background), ….
The target of assay [10] is T5, HCV NS3/4A PR D168E (S139A background), ….
In assay [11] the target is T3, HCV NS3/4A PR K136D (S139A background), …. The experiment in a line: SPR Biacore 8K, with simeprevir.
Assay [12] has as its target T4, HCV NS3/4A PR K136N (S139A background), …. The experiment in a line: SPR Biacore 8K, with simeprevir.
For assay [13], the target named is T5, HCV NS3/4A PR D168E (S139A background), …. The experiment in a line: SPR Biacore 8K, with simeprevir.
In assay [14] the target is T3, HCV NS3/4A PR K136D (S139A background), …. As to the kind of experiment: SPR Biacore 8K, simeprevir titrated.

Substitutions are numbered along the chain they refer to.

T1 sequence (P02769 25-607 limits assumed): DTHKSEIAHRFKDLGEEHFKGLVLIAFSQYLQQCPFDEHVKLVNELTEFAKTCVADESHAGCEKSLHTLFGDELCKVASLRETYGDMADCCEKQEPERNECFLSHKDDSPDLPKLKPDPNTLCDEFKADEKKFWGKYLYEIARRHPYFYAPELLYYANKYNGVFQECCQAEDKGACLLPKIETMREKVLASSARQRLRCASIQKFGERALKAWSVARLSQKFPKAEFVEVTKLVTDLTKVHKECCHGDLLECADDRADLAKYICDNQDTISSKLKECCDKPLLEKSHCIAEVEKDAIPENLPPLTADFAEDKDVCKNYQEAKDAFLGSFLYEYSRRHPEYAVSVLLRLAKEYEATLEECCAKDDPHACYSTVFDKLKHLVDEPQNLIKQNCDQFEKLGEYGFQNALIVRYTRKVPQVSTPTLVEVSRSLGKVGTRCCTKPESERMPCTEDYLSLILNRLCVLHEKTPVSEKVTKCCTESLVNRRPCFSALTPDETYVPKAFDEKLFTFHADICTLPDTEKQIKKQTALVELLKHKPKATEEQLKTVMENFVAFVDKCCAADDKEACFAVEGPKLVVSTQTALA

B1: PRSIM_72 (scFv)
scFv: QVQLVQSGAEVKKPGSSVKVSCKVSGGSFNNYGVSWVRQAPGQGLEWMGRIIPIRDTANYAQKFQGRVTITADTSTNIAYMELSGLRSDDTAVYYCARVLEDDFWGGYYDFYFYVMDVWGQGTLVTVSSGGGGSGGGGSGGGGSALSSELTQDPVVSVPLGQTARITCQGDSLTTYYATWYQQKPGQAPVLVLYNEHKRPSGISDRFSGSSAGDAASLTITDTQAEDEADYYCSSRDTGGKHVLFGGGTKLTVL
Regarding B1, in [1], the binding result was “no binding (tested: 20 nM)”.

B2: PRSIM_36 (designed binder)
chain: RLDAPSQIEVKDVTDTTALITWSWPRDDDYDIWYFELTYGIKDVPGDRTTIKLLNYASPYSIGNLKPDTEYEVSLISVVPDTYGRGTSNPAKITFKTGL
With B2, the “Binding fold change [(HCV protease + Simeprevir binding)/HCV protease alone]” value (from here on “Binding fold change”) in assay [2] worked out at 27.9 fold. Besides, the “HTRF max. signal (% delta F)” value in assay [3] stood at 1440 % delta F. Further, in assay [1], the binding result is listed as “no binding (tested: 20 nM)”. For the same molecule, in assay [4], the Kd was 9.7 nM, the koff amounted to 0.0498 s⁻¹ and the kon worked out at 5.15e+06 M⁻¹ s⁻¹.

B3: PRSIM_33 (designed binder)
chain: RLDAPSQIEVKDVTDTTALITWYPPGRWYDDIWYFELTYGIKDVPGDRTTIKLARGDDVYSIGNLKPDTEYEVSLISWGPDRGDRAGSNPAKITFKTGL
Regarding B3, in [2], the “Binding fold change” value worked out at 29.9 fold. For the same molecule, in assay [3], the “HTRF max. signal (% delta F)” value turned out to be 1700 % delta F. Besides, the binding result in [1] is listed as “no binding (tested: 20 nM)”. In addition, in assay [4], binding was characterised by a dissociation constant (Kd) of 8.3 nM, the koff turned out to be 0.0303 s⁻¹ and the kon turned out to be 3.65e+06 M⁻¹ s⁻¹.

B4: PRSIM_04 (scFv)
scFv: QVQLVQSGAEVKKPGSSVKVSCKASGGTFSSYAISWVRQAPGQGLEWMGGIIPIFGTANYAQKFQGRVTITADESTSTAYMELSSLRSEDTAVYYCARGMAHFYQFDLWGQGTLVTVSSGGGGSGGGGSGGGGSAQSVLTQPPSASGTPGQRVTISCSGSSSNIGSNTVNWYQQLPGTAPKLLIYSNNQRPSGVPDRFSGSKSGTSASLAISGLQSEDEADYYCAAGDHDHEHVVFGGGTKLTVL
notes: also called PRSIM_4
For B4, the binding result in assay [1] is “no binding (tested: 20 nM)”.

B5: PRSIM_57 (scFv)
scFv: QVQLVQSGAEVKKPGSSVKVSCKASGGTFSSYAISWVRQAPGQGLEWMGGIIPIFGTANYAQKFQGRVTITADESTSTAYMELSSLRSEDTAVYYCARHTNYITVFDYWGQGTLVTVSSGGGGSGGGGSGGGGSAQSVLTQPPSASGTPGQRVTISCSGSSSNIGSNTVNWYQQLPGTAPKLLIYSNNQRPSGVPDRFSGSKSGTSASLAISGLQSEDEADYYCAAWDHHWEQVVFGGGTKLTVL
B5: the binding result in assay [1] is “no binding (tested: 20 nM)”.

B6: PRSIM_23 (designed binder)
chain: RLDAPSQIEVKDVTDTTALITWVDPRYDDIWWFELTYGIKDVPGDRTTIKLYLNDPYYSIGNLKPDTEYEVSLISYTGDSYSRSGSNPAKITFKTGL
On to B6, for which the figures for the “Simeprevir EC50 for induction of heterodimerisation” value in assay [5], in assay [6] and in [7] were 132 nM, 8.06 nM and 3.69 nM, respectively. For the same molecule, the results for the Kd in [8], in [9] and in assay [10] were 33 nM, 39.5 nM and 14.7 nM, respectively. Further, in [9], the kon stood at 5.31e+08 M⁻¹ s⁻¹. For the same molecule, the “fold decrease of affinity against 'Wt'” value in assay [11] and in assay [12] was 6 to 7 fold throughout. In addition, the “fold decrease of affinity against 'wt' protease” value in [13] was approximately 3 fold. In assay [14], the “fold increase of the simeprevir EC50 against the wt complex” value was approximately 30 fold.

B7: PRSIM_47 (designed binder)
chain: RLDAPSQIEVKDVTDTTALITWSRPGVSIWYFELTYGIKDVPGDRTTIKLDYRSYYYSIGNLKPDTEYEVSLISGSYGLVGVRASNPAKITFKTGL
Turning to B7, the “Binding fold change” value in assay [2] was 25.3 fold. Further, in assay [3], the “HTRF max. signal (% delta F)” value was 1370 % delta F. Moreover, in [1], the binding result is “no binding (tested: 20 nM)”. Besides, in [4], the affinity, expressed as Kd, was 3.9 nM.

B8: PRSIM_75 (scFv)
scFv: EVQLVQSGAEVKKPGSSVKVSCKASGGSFNSYTLDWVRQAPGQGLEWMGGIIPVFGSPNYGQKFQGRVTITADESTSTAYMELSSLKSDDTAVYYCARGLVYQPLDSWGRGTLVTVSSGGGGSGGGGSGGGGSAQAVLTQPSSASGTPGQRVTISCSGSSSNIGSYTVNWYQQFPGTAPKLLIYSNTQRPSGVPDRFSGSKSGTSASLAISGLQSEDEADYYCAAWDDSLNGWVFGGGTKVTVL
For the molecule B8, the binding result in assay [1] was “no binding (tested: 20 nM)”.

B9: PRSIM_32 (designed binder)
chain: RLDAPSQIEVKDVTDTTALITWWSPRYYYASISGFELTYGIKDVPGDRTTIKLDYASNDYSIGNLKPDTEYEVSLISWNYGDWRYSSSNPAKITFKTGL
Turning to B9, the “Binding fold change” value in assay [2] stood at 22.4 fold. The “HTRF max. signal (% delta F)” value in [3] is 1960 % delta F. Further, the binding result in [1] is “no binding (tested: 20 nM)”. The molecule also registered a Kd in [4] of 16 nM.

B10: PRSIM_67 (scFv)
scFv: EVQLVQSGAEVKKPGAAVRISCKTSGYVFTSYYVHWVRQAPGQGLEWMGVINPSGGNTNYAQKFQDRVTMTRDTSTTTVYMELSSLMFDDTAVYYCAKRDYGGPLANWGRGTLVTVSSGGGGSGGGGSGGGGSALSYELTQPPSVSEAPRQRVTISCSGSSSNIGNNAVNWYQQLPGKAPKLLIFYDDLLPSGVSDRFSGSKSGTSASLAISGLQSEDEADYYCAAWDDSLNGLVFGTGTKLTVL
In the case of B10, in assay [1], the binding result was “no binding (tested: 20 nM)”.

Source of the values: patent US20220380801A1 (AstraZeneca / MedImmune, published 2022).
